# Measurements from the supplement of paper PMC7877785.
# ± gives the uncertainty stated by the source.
# Test: self-splicing fitness, log relative to wild type (ln ratio); higher = more splicing; Tetrahymena group I intron in knt gene, E. coli kanamycin selection, DiMSum; sequences stand for … in CUCUCU…GGAGGGAAAAGUUAUCAGGCAUGCACCUGGUAGCUAGUCUUUAAACCAAUAGAUUGCAUCGGUUUAAAAGGCAAGACCGUCAAAUUGCGGGAAAGGGGUCAACAGCCGUUCAGUACCAAGUCUCAGGGGAAACUUUGAGAUGGCCUUGCAAAGGGUAUGGUAAUAAGCUGACGGACAUGGUCCUAACCACGCAGCCAAGUCCUAAGUCAACAGAUCUUCUGUUGAUAUGGAUGCAGUUCACAGACUAAAUGUCGGUCGGGGAAGAUGUAUUCUUCUCAUAAGAUAUAGUCGGACCUCUCCUUAAUGGGAGCUAGCGGAUGAAGUGAUGCAACACUGGAGCCGCUGGGAACUAAUUUGUAUGCGAAAGUAUAUUGAUUAGUUUUGGAGUACUCGUGGUCG
# In short: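 Six replicate transformations of E. coli BL21(DE3) with a pET-22b(+) library were grown overnight at 37°C or 30°C. The library randomised all eight P1ex-region intron nucleotides, the intron lying in the knt kanamycin-resistance gene, and plates were LB agar with or without 25 μg/mL kanamycin plus 100 μg/mL carbenicillin, 50 μM IPTG and 0.2% rhamnose. Pooled colonies were amplicon-sequenced on an Illumina HiSeq 2500, and fitness is the DiMSum error-weighted combination of wild-type-normalised replicate fold changes, kanamycin versus none.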
Sequence,self-splicing fitness (ln) (30 °C),self-splicing fitness (ln) (37 °C)
UACUAGCAAUAUUACGUUGG,-2.61 ± 0.14,-0.807 ± 0.15
UAGAAGCAAUAUUACGAAAU,-3.48 ± 0.24,-1.95 ± 0.21
UAGAAGCAAUAUUACGACAG,-0.764 ± 0.12,-0.152 ± 0.14
UAGAAGCAAUAUUACGACGC,-1.84 ± 0.33,-1.21 ± 0.24
UAGAAGCAAUAUUACGAGCA,-1.27 ± 0.096,0.167 ± 0.1
UAGAAGCAAUAUUACGAGCC,,-2.23 ± 0.26
UAGAAGCAAUAUUACGAGGG,-3.17 ± 0.18,-2.62 ± 0.21
UAGAAGCAAUAUUACGAUAG,-1.57 ± 0.15,-0.522 ± 0.15
UAGAAGCAAUAUUACGAUCU,-1.11 ± 0.12,-0.261 ± 0.16
UAGAAGCAAUAUUACGAUGC,-1.9 ± 0.24,-0.852 ± 0.2
UAGAAGCAAUAUUACGCAAU,-2.51 ± 0.16,-1.04 ± 0.24
UAGAAGCAAUAUUACGCACA,-0.416 ± 0.098,-0.144 ± 0.16
UAGAAGCAAUAUUACGCACG,-0.11 ± 0.23,-0.0394 ± 0.23
UAGAAGCAAUAUUACGCAGU,-4.08 ± 0.29,-2.07 ± 0.25
UAGAAGCAAUAUUACGCGUG,-1.17 ± 0.13,-0.211 ± 0.13
UAGAAGCAAUAUUACGCUAA,-1.42 ± 0.12,-0.983 ± 0.1
UAGAAGCAAUAUUACGCUUC,-2.27 ± 0.18,-2.81 ± 0.22
UAGAAGCAAUAUUACGGAUU,-1.57 ± 0.11,-1.37 ± 0.15
UAGAAGCAAUAUUACGGCAC,-2.42 ± 0.09,-1.89 ± 0.095
UAGAAGCAAUAUUACGGCGA,0.119 ± 0.22,-0.385 ± 0.24
UAGAAGCAAUAUUACGGGGC,-3.58 ± 0.39,-1.6 ± 0.21
UAGAAGCAAUAUUACGGUAU,-3.08 ± 0.2,-2.55 ± 0.17
UAGAAGCAAUAUUACGGUUC,-3.98 ± 0.25,-2.31 ± 0.19
UAGAAGCAAUAUUACGUACA,-0.549 ± 0.14,0.208 ± 0.16
UAGAAGCAAUAUUACGUCAA,-2.08 ± 0.16,-0.86 ± 0.12

Sequence,self-splicing fitness (ln) (30 °C),self-splicing fitness (ln) (37 °C)
UAGAAGCAAUAUUACGUCGC,-3.7 ± 0.38,-2.21 ± 0.32
UAGAAGCAAUAUUACGUCGU,-1.75 ± 0.097,-0.904 ± 0.1
UAGAAGCAAUAUUACGUCUU,-1.18 ± 0.072,-0.782 ± 0.085
UAGAAGCAAUAUUACGUUCU,-1.61 ± 0.11,-1.08 ± 0.11
UAGAAGCAAUAUUACGUUUA,-1.21 ± 0.11,-0.575 ± 0.098
UAGCAGCAAUAUUACGAAAG,-2.58 ± 0.21,-1.73 ± 0.25
UAGCAGCAAUAUUACGAAGA,-1.64 ± 0.14,-1.29 ± 0.13
UAGCAGCAAUAUUACGACCG,-0.887 ± 0.13,-0.0437 ± 0.22
UAGCAGCAAUAUUACGACUC,-0.27 ± 0.091,0.54 ± 0.12
UAGCAGCAAUAUUACGCCAA,-1.78 ± 0.12,-0.98 ± 0.1
UAGCAGCAAUAUUACGCCAU,-4.36 ± 0.3,-2.32 ± 0.14
UAGCAGCAAUAUUACGCGGG,-2.24 ± 0.14,-2.04 ± 0.2
UAGCAGCAAUAUUACGCUCG,-1 ± 0.12,0.142 ± 0.14
UAGCAGCAAUAUUACGCUUA,-0.452 ± 0.084,-0.689 ± 0.087
UAGCAGCAAUAUUACGGACC,-1.74 ± 0.18,-1.67 ± 0.29
UAGCAGCAAUAUUACGGAUA,-0.783 ± 0.081,-0.203 ± 0.1
UAGCAGCAAUAUUACGGAUU,-3.22 ± 0.14,-1.08 ± 0.13
UAGCAGCAAUAUUACGGCAU,-1.29 ± 0.081,-0.191 ± 0.089
UAGCAGCAAUAUUACGGGAA,-2.47 ± 0.19,-1.41 ± 0.18
UAGCAGCAAUAUUACGGGCC,-1.45 ± 0.21,-2.55 ± 0.36
UAGCAGCAAUAUUACGGGGU,-3.72 ± 0.14,-2.99 ± 0.16
UAGCAGCAAUAUUACGGGUA,-0.507 ± 0.052,0.13 ± 0.057
UAGCAGCAAUAUUACGGUGG,-1.85 ± 0.089,-1.12 ± 0.1
UAGCAGCAAUAUUACGUAAA,-1.73 ± 0.099,-1.32 ± 0.13
UAGCAGCAAUAUUACGUAAU,-3.27 ± 0.12,-0.695 ± 0.089

Sequence,self-splicing fitness (ln) (30 °C),self-splicing fitness (ln) (37 °C)
UAGCAGCAAUAUUACGUGAC,-3.19 ± 0.18,-3.45 ± 0.28
UAGCAGCAAUAUUACGUGAG,-0.937 ± 0.035,-0.228 ± 0.056
UAGCAGCAAUAUUACGUGGG,-3.61 ± 0.11,-2.42 ± 0.13
UAGCAGCAAUAUUACGUUAA,-2.13 ± 0.099,-1.15 ± 0.084
UAGCAGCAAUAUUACGUUAG,-3.08 ± 0.12,-1.34 ± 0.13
UAGCAGCAAUAUUACGUUUG,-1.29 ± 0.077,-1.12 ± 0.11
UAGCAGCAAUAUUACGUUUU,-2.6 ± 0.12,-2.31 ± 0.19
UAGGAGCAAUAUUACGAGAG,-3.02 ± 0.21,
UAGGAGCAAUAUUACGAUAU,-3.96 ± 0.33,-2.46 ± 0.28
UAGGAGCAAUAUUACGCAAU,,-1.73 ± 0.38
UAGGAGCAAUAUUACGCCAU,-3.74 ± 0.43,-2.72 ± 0.48
UAGGAGCAAUAUUACGCGGC,-2.42 ± 0.39,
UAGGAGCAAUAUUACGCUAA,,-1.57 ± 0.41
UAGGAGCAAUAUUACGCUCA,-1.55 ± 0.19,-1.37 ± 0.16
UAGGAGCAAUAUUACGCUUU,-2.54 ± 0.32,-1.66 ± 0.29
UAGGAGCAAUAUUACGGACU,-3.22 ± 0.25,-2.41 ± 0.22
UAGGAGCAAUAUUACGGAGG,-4.35 ± 0.42,-2.73 ± 0.32
UAGGAGCAAUAUUACGGUUG,-3.11 ± 0.36,-2.4 ± 0.24
UAGGAGCAAUAUUACGUACA,-2.47 ± 0.22,-0.906 ± 0.18
UAGGAGCAAUAUUACGUGGG,-3.17 ± 0.24,-3.32 ± 0.38
UAGGAGCAAUAUUACGUUAG,-3.8 ± 0.3,-2.71 ± 0.49
UAGGAGCAAUAUUACGUUCA,-2.05 ± 0.16,-1.02 ± 0.19
UAGUAGCAAUAUUACGAACG,-0.961 ± 0.13,-0.0932 ± 0.15
UAGUAGCAAUAUUACGACGC,-3.61 ± 0.25,-0.996 ± 0.21
UAGUAGCAAUAUUACGACUA,-0.0384 ± 0.12,0.251 ± 0.12

Sequence,self-splicing fitness (ln) (30 °C),self-splicing fitness (ln) (37 °C)
UAGUAGCAAUAUUACGAGUA,-1.44 ± 0.11,-0.61 ± 0.084
UAGUAGCAAUAUUACGAUAC,-2.73 ± 0.44,
UAGUAGCAAUAUUACGAUCA,-0.544 ± 0.088,0.306 ± 0.12
UAGUAGCAAUAUUACGAUGA,-1.59 ± 0.26,-1.7 ± 0.28
UAGUAGCAAUAUUACGCCGU,-2.58 ± 0.24,-2.23 ± 0.3
UAGUAGCAAUAUUACGCUAA,-2.12 ± 0.28,-1.3 ± 0.15
UAGUAGCAAUAUUACGCUUC,,-1.91 ± 0.37
UAGUAGCAAUAUUACGGCAA,-0.858 ± 0.15,-1.04 ± 0.16
UAGUAGCAAUAUUACGGGUG,-0.96 ± 0.071,-0.773 ± 0.079
UAGUAGCAAUAUUACGGUAG,-2.56 ± 0.18,-1.73 ± 0.22
UAGUAGCAAUAUUACGGUCA,-0.074 ± 0.16,-0.852 ± 0.18
UAGUAGCAAUAUUACGUAAA,-3.01 ± 0.21,-1.03 ± 0.15
UAGUAGCAAUAUUACGUAAC,-3.54 ± 0.15,-1.89 ± 0.15
UAGUAGCAAUAUUACGUACG,-1.24 ± 0.16,0.127 ± 0.16
UAGUAGCAAUAUUACGUACU,-0.816 ± 0.12,-0.109 ± 0.12
UAGUAGCAAUAUUACGUCGG,-2.04 ± 0.08,-1.53 ± 0.12
UAGUAGCAAUAUUACGUGCA,-0.861 ± 0.12,-0.189 ± 0.11
UAGUAGCAAUAUUACGUGUC,,-2.22 ± 0.34
UAUAAGCAAUAUUACGAAAA,-1.72 ± 0.31,-1.27 ± 0.31
UAUAAGCAAUAUUACGACUU,-0.386 ± 0.13,-0.681 ± 0.13
UAUAAGCAAUAUUACGAGGC,,-2.5 ± 0.39
UAUAAGCAAUAUUACGAUAG,-1.4 ± 0.16,-0.486 ± 0.17
UAUAAGCAAUAUUACGAUGU,-2.49 ± 0.11,-1.71 ± 0.12
